Data published in the nanobody polyreactivity screen of Harvey et al. (2022).

Test: yeast display, Sf9 membrane polyspecificity reagent, FACS + sequencing; frameworks hold sequencing errors
In short: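 Nanobodies came from a synthetic yeast display library in Saccharomyces cerevisiae BJ5465, induced with galactose for 36–48 hours and stained for 1 hour at 4 °C with 10% biotinylated, detergent-solubilized Sf9 membrane reagent. Cells were enriched on streptavidin microbeads and then FACS-sorted, with low and high (top ~1%) gates set on anti-HA fluorescence for expression and streptavidin fluorescence for reagent binding. Each polyreactivity label reflects the gate a clone came from. Genes were amplified by colony PCR, sequenced by MiSeq 2 × 250 and filtered by CDR length.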

| Sequence | polyreactivity (PSR sort gate) |
| --- | --- |
| QVQLVESGGGLVQAGGSLRLSCADSGYTFYFYAMGWYRQAPGKESELVAAITGGGTTSYADSVKGRFTISRDNAKNTVYLEMNSLKPEDTAFYYCAAYAYGVWQYQYGGNYWGQGTQVTVSS | low polyreactivity |
| QVQLVESGGGLVQAGGSLRLSCADSVFTFGYYAMGWYRQAPGKERELVAAISRNGGRTYYADSVKGRFTISRDNAKNNVYLQMNSLKTVYTAVHYCNALLFFLNRVWSFDYWGQGTQVTVSS | high polyreactivity |
| QVQLVESGGGLVQAGGSLRLSCADSVSIVGYYTMGWYRQAPWKARELVSGITSTGNTNYADSVKGRFTISRDNAKNTVYLHMNSLKPEHTAVYYCAADSESTWDFGWELEVGYDYWGQGTQVNVSS | low polyreactivity |
| QVQLVESGGGLVQAGGSLRLSCAEYAMGCYRQAPGKERELVATITARGGSTYADSVKGRFTISRDNAKNTVYLQMNSLKPEDTAVYYCNADYGLFYRATFYGYDYWGQCTQVTVSS | low polyreactivity |
| QVQLVESGGGLVQAGGSLRLSCAGLRIYLPGYAKGWYIQAPGKERELVAVISGSGSGTYYADSVKGRFTISLDNAKNTVYLQMNSLKPEDTAVYYCAADAGSNEAYFRRMDYWGQGTQVTVSS | high polyreactivity |
| QVQLVESGGGLVQAGGSLRLSCAGSGFTFQYYAMGWYRQAPGKERELVAAMSWGGGSTYYADSVKGRFTISRDNAKKTVYLQMNSLKPEDTAVYYCNAYDYLSAGDDYWGQGTQVTVSS | low polyreactivity |
| QVQLVESGGGLVQAGGSLRLSCAGSGFTLDGYVMGWYRQAPGQEREFVAAIRSSGGSTRYADSVKGRFTISRDNAKNTVYLQMNSLKPEDTALYYSAAVAYYWGYEQWYDYWGQGTQVTVSS | high polyreactivity |
| QVQLVESGGGLVQAGGSLRLSCAGSGITFYWYAMGWDRQAPGKERELVAGISQSGSRTYYADSVKGRFTISRDNAKNTVYLQMNSLKPEDTAVYYCAARVRWSPTRTFEYWGQGTQVTVSS | high polyreactivity |
| QVQLVESGGGLVQAGGSLRLSCAGSGRTFWANTMGWYIQAPGKEREFVAAISGRDVSTYYADSVKGRFTISRDNAKNTVFLQMNSLKPEDTAVYYCAAQWQYLGHMGYWGQGTQVTVSS | low polyreactivity |
| QVQLVESGGGLVQAGGSLRLSCAGSGSISYFNAMGWYRQAPGKERELVAAISYSGGSTYYADSVKGRFTISRDNAKNTVYLQMNSLKPEDTAVYYCAADRLIGWRKTYYYWGQGTQVTVSS | high polyreactivity |
| QVQLVESGGGLVQAGGSLRLSCAGSGSTFKKYPMGWYREATGKEREFVAAISRGGRTYYADSVKGRFTSSRDNAKTTVYLQMNSLNPEDTAVYYCAADTFAYQEVYYWGQGTQVTVSS | high polyreactivity |
| QVQLVESGGGLVQAGGSLRLSCAGSGSTFRYYVLGWYRAAPGKDRVLVARITSAASTNYADSVKGRFTISRDNAKTTVNLQMNSLKPEDTPVYYCAADAYWIRSRFLYRIRYNYWGQGTQVTVSS | high polyreactivity |
| QVQLVESGGGLVQAGGSLRLSCAGSGSTFVYNAMGWYRQAPGKERELVAAITAAGGRTYYADSVKGRFTISRDTAKNTVYLQMNSLKPEDTAVYYCYTVRPHGMDYWGQGTQVTVSS | high polyreactivity |
| QVQLVESGGGLVQAGGSLRLSCAGSGSTFYRYALGWYRQAPGKEWEWVAVINSGCSTYYADSVKGRFTISRDNAKHTVYVQMNSMKPEDTAVSYCAAVRNQGGYVYGYGYWGQGTQVTVSS | high polyreactivity |
| QVQLVESGGGLVQAGGSLRLSCAHSASNFGIYAMGWYRQAPGKERELVAPITWYGTSTYYADSVKGRFTISRDNSKNSVYLQMNSLKPEDTAVYYCATAYIQVSATFYEYEYWGQGTQVTVSS | low polyreactivity |
| QVQLVESGGGLVQAGGSLRLSCAHSGSIFGQNAMGWYRHAPGKVRELVAAIRVSGGSTYYADSVKGRFTISRDNAKNTVYLQMNSLKPEDTAGYYCNARYRGYDGPITHGVTSYYWGQGTQVTVSS | low polyreactivity |
| QVQLVESGGGLVQAGGSLRLSCAPCGIIFTDYAMGWYRQAPGKERELVAAISSGGGSTYYADSVKGRFTISRDNAKNTVYLQMNSLKPEDTAVYYCNARSPYYSYLLHAYRVFDYWGQGTQVNVSS | high polyreactivity |
| QVQLVESGGGLVQAGGSLRLSCAPSGFIFGHNTMGWYRQAPGKECELVARITSSGGRTYYADSVKGRFTISRDNAKNTVYLQMNSLKPLDSAVYYCAAVSPNTAYDYWGQGTQVTVSS | high polyreactivity |
| QVQLVESGGGLVQAGGSLRLSCAPSGFTFDFYAMGWYRQEPGKATELFAAINSGGSTNYADSVKGRFTISRDNAKNTVYLQMNSLKPEDTAVYYCNADWFTPAQPWYRYFIRYDYWGQGSQVTVSS | low polyreactivity |
| QVQLVESGGGLVQAGGSLRLSCAPSGFTFGDYAMGWYRQAPGKERELVAAISWSGSNTYYADSVKGRFTLSRDNAKNTVYLQMNSLKPEDTAVYYCNADYDPEDMDYWGQGTQVTVSS | low polyreactivity |
| QVQLVESGGGLVQAGGSLRLSCAPSGFTFGYYAMGWYRQAPGKEMELVAAISSSGGSTYYADSVKGRFTISRDNAKKTVYLQMNSLKREVTAVYYCAVVVFSRVYRYFTSDYWGQGTQVTVSS | high polyreactivity |
| QVQLVESGGGLVQAGGSLRLSCAPSGFTFGYYAMGWYRQAPGKERELVAAITYSGGSTYYADSVKGRFTISRDNAKNTVYLQMNSLKPEDTAVYYCNAYDRRYYYGRWYGEFDYWGLGTQVTVSS | low polyreactivity |

| Sequence | polyreactivity (PSR sort gate) |
| --- | --- |
| QVQLVESGGGLVQAGGSLRLSCAPSGFTFYKNAMGWYRQAPGKERELVAAITSSGGSTYYADSVKGRFTISRDNAKNTVYLQMNSLKPEDTAVYYCAAYPQAYIADYDYWGQGTQVTVSS | low polyreactivity |
| QVQLVESGGGLVQAGGSLRLSCAPSGFTLSTYAMGWYRQAPGKERELVAAISRSTDRTYYADSVKGRFTISRDNAKNTVYLQMNSLKPEDTAVYYCAAKSVYYLYRFYYWGQGSQVTVSS | high polyreactivity |
| QVQLVESGGGLVQAGGSLRLSCAPSGIIFYVYAIGWYRQAPGMERELVADITYGDRTNYADSVNGRFTISRDNAKNTVYLQMNSLKPEDTAVYYCAAKRNVLLGYTDQSLYDYWGQGTQVTVSS | low polyreactivity |
| QVQLVESGGGLVQAGGSLRLSCAPSGITFFYNTMGWYRQAPGKERELVAAISVSGGGTYYADSVKARFTISRDNAKNTVYLQMNSLKPEDTAVYYCNKVQVRQRRYDYWGQGTQVTVSS | low polyreactivity |
| QVQLVESGGGLVQAGGSLRLSCAPSGLIFGRYAMGWYRQAPGKERELVAAISSSGVRTYYADSVKGRFTISRDNAKNTVYLQMNSLKPEDTAVYYCAAAYWSSREDTVIKRYYWGQGTQVTVSS | high polyreactivity |
| QVQLVESGGGLVQAGGSLRLSCAPSGLTYLYAMGWYRQAPGKETELVAAISSSGGSTYYADSVKGRFTISRDNAKNTVSLQMNSLNPEDTGVYYCAAYTRGWLGYDYWGQGTQVTVSS | high polyreactivity |
| QVQLVESGGGLVQAGGSLRLSCAPSGRIFEIYAMGWYRQAPGKESELVAAISWRGVSTYYADSVKGRFTISRDNAKNTVYLQMNSLKPEDTAVYYCNKDVDYFWYVEYDYWGQGTQVTVSS | low polyreactivity |
| QVQLVESGGGLVQAGGSLRLSCAPSGRIFGGYTMGGYRQAHGKVRELVASINSGGSTAYADSVKGRFTISRDNAKNTVYLQMNSLKPEDTAVYYCNAYLVYSYSPSHYYGFGYWGQGTQVTVSS | high polyreactivity |
| QVQLVESGGGLVQAGGSLRLSCAPSGRIFPRNAMGWYRQAPGKERELVAAITKSGGSTYYADSVKGRFTISRDNAKNTVYLQMNSLKPEDTAVYYCNAVQYRNYYWGQGTQVTVSS | high polyreactivity |
| QVQLVESGGGLVQAGGSLRLSCAPSGRIFRKYAMGWYRQAPGKERELVAAINSRGGRTYYADSVKGRFTISRDNAKKTVYLQMNSLKPEDTAVYYCAASVGWGMDYWGQGTQVTVSS | high polyreactivity |
| QVQLVESGGGLVQAGGSLRLSCAPSGRIFSYNTVMGWYRQAPGKERELVAAITYSSASTYYADSVKGRFTISRDNAKNTVYLQMNSLKPEDTAVYYCAAVRYERGLWSDYWGQGTQVTVSS | high polyreactivity |
| QVQLVESGGGLVQAGGSLRLSCAPSGRIFYGYAMGWYRQAPGKEREFVARINVSGTSTFYADSVKGRFTISRDNAKNTVYLQMNSLKPEDTAVYYCAARGLPSNYYYYVHGYIMDYWGQGTHVTVSS | low polyreactivity |
| QVQLVESGGGLVQAGGSLRLSCAPSGRILGYYAMGWYRQAPGKERELVAAISSGDSTNYADSVKGRFTISRDNAKYTVYLQMNSLKPEDTAVYYCAAKGWIWNAYNYWGQGTQVTVSS | low polyreactivity |
| QVQLVESGGGLVQAGGSLRLSCAPSGRILRGYAMGWYRQAPGKDRELVAAISRRGGSTRYADSVKGRFTISRDNAKNTVYLQMNSLKPEDTAVYYCAPRYHPWCYDYWGQGTQVTVSS | high polyreactivity |
| QVQLVESGGGLVQAGGSLRLSCAPSGRILWFYAMGWYRQAPGKERELVAAISSSSGRTYYADSVKGRFTISRDNAKNTVYLQMYILKPEDSAVYYCAATHAVARPLEYDYWGQGTHVTVSS | low polyreactivity |
| QVQLVESGGGLVQAGGSLRLSCAPSGRISGWYAMGWYRQAPGKQRELVASISSSGGSTYYADSVKGRFTISRDNAKNSVYLQMNSLKPEDTAVYYCAVRRYNWSFYRGYDYWGQGTQVTVSS | high polyreactivity |
| QVQLVESGGGLVQAGGSLRLSCAPSGRTFGYNVMGWYRQAPGKERELVAAISYSGGSTYYADSVKGRFTISRDNAKNTVYLQMNSLKPEDTAVYYCAATVLSWYGDYPVYYWGQGTQVTVSS | low polyreactivity |
| QVQLVESGGGLVQAGGSLRLSCAPSGRTFGYYGMGWYRQEPGKERELVASINFSSGSTFYADSVKGRFSISRDNAKNTVYLQMNSLKPEDTAVYYCAARAKAVRSYAYNYWGQGTQVTVSS | low polyreactivity |
| QVQLVESGGGLVQAGGSLRLSCAPSGRTFIFYAMGWSRQAPGKERELVAAISSSGSGTYYADSVKGRFTISRDNAKNTVYLQMNSLIPEDTAVYYCAADVVNSRRRPKYGYWGQGSQVTVSS | low polyreactivity |
| QVQLVESGGGLVQAGGSLRLSCAPSGRTFYSYAMGWYRHAPGKERELGAAITSSGGSTYYADSVKGRFTISRDNAKNTVYLQMNSLKPEDTAVYDCAAGKPYSSYWSWGYWTNLEDDYWGQGTQVNVSS | high polyreactivity |
| QVQLVESGGGLVQAGGSLRLSCAPSGRTLYGYAMGWYRQAPGKVSALVASFRSGGSTNYADSVKGRFTISLDNAKNTVYLQMNSLKPEDTAVYYCAADPYYSYGYYHAHGRDDGYWGQCTQVTVSS | low polyreactivity |
